# T1: human FcγR2B (human, UniProt P31994 43-217)
# T1 construct: extracellular domain; also called hFcγR2B; CD32B
# T1 sequence (looked up): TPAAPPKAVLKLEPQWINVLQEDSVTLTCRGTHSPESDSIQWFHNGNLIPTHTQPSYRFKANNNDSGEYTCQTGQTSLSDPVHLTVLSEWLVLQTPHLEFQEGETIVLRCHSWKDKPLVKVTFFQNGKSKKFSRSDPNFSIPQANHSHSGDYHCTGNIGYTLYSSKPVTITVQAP
# T2: human FcγR2A 131H (human, UniProt P12318 34-217)
# T2 construct: extracellular domain
# T2 sequence (looked up): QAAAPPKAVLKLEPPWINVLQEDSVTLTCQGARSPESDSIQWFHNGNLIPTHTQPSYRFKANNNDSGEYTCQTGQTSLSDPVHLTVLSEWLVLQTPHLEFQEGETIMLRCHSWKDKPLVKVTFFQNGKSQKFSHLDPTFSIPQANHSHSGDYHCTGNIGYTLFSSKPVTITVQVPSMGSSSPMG
# T3: human FcγR2A 131R (human, UniProt P12318 34-217)
# T3 construct: extracellular domain
# T3 sequence (looked up): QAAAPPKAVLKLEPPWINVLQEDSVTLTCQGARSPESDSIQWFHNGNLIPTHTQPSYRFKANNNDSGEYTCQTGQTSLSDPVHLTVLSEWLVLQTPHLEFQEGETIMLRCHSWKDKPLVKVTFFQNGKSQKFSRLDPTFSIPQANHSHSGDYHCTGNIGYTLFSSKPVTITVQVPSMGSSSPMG
# T4: soluble cynomolgus macaque BTLA extracellular domain (BTLA K31-R151) (cynomolgus macaque)
# T4 construct: also called cynomolgus BTLA; cyno BTLA
# T4 chain: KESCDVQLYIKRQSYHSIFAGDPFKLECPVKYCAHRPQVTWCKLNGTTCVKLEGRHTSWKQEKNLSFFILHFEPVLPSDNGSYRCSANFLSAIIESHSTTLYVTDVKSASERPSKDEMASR
# B1: humanised 2.8.6 hIgG1 delta ab P238D (antibody)
# chain 1: QVTLKESGPALVKPTQTLTLTCTVSGFSLTTYGVHWIRQPPGKALEWLGVMWPGGRTSYNPSLKSRLTITKDNSKSQVVLTMTNMDPVDTATYYCVRGDYEYDYYAMDYWGQGTLVTVSSASTKGPSVFPLAPSSKSTSGGTAALGCLVKDYFPEPVTVSWNSGALTSGVHTFPAVLQSSGLYSLSSVVTVPSSSLGTQTYICNVNHKPSNTKVDKKVEPKSCDKTHTCPPCPAPPVAGDSVFLFPPKPKDTLMISRTPEVTCVVVDVSHEDPEVKFNWYVDGVEVHNAKTKPREEQYNSTYRVVSVLTVLHQDWLNGKEYKCKVSNKGLPSSIEKTISKAKGQPREPQVYTLPPSRDELTKNQVSLTCLVKGFYPSDIAVEWESNGQPENNYKTTPPVLDSDGSFFLYSKLTVDKSRWQQGNVFSCSVMHEALHNHYTQKSLSLSP
# chain 2: EIVLTQSPATLSLSPGERATLSCRASSSVSYMHWYQQKPGQAPRPLIYATSNRATGIPARFSGSGSGTDYTLTISSLEPEDFAVYYCHQWSSNPYTFGQGTKLEIKRTVAAPSVFIFPPSDEQLKSGTASVVCLLNNFYPREAKVQWKVDNALQSGNSQESVTEQDSKDSTYSLSSTLTLSKADYEKHKVYACEVTHQGLSSPVTKSFNRGEC
# B2: humanised 2.8.6 hIgG1 delta ac P238D (antibody)
# chain 1: QVTLKESGPALVKPTQTLTLTCTVSGFSLTTYGVHWIRQPPGKALEWLGVMWPGGRTSYNPSLKSRLTITKDNSKSQVVLTMTNMDPVDTATYYCVRGDYEYDYYAMDYWGQGTLVTVSSASTKGPSVFPLAPSSKSTSGGTAALGCLVKDYFPEPVTVSWNSGALTSGVHTFPAVLQSSGLYSLSSVVTVPSSSLGTQTYICNVNHKPSNTKVDKKVEPKSCDKTHTCPPCPAPPVAGGDSVFLFPPKPKDTLMISRTPEVTCVVVDVSHEDPEVKFNWYVDGVEVHNAKTKPREEQYNSTYRVVSVLTVLHQDWLNGKEYKCKVSNKGLPSSIEKTISKAKGQPREPQVYTLPPSRDELTKNQVSLTCLVKGFYPSDIAVEWESNGQPENNYKTTPPVLDSDGSFFLYSKLTVDKSRWQQGNVFSCSVMHEALHNHYTQKSLSLSP
# chain 2: EIVLTQSPATLSLSPGERATLSCRASSSVSYMHWYQQKPGQAPRPLIYATSNRATGIPARFSGSGSGTDYTLTISSLEPEDFAVYYCHQWSSNPYTFGQGTKLEIKRTVAAPSVFIFPPSDEQLKSGTASVVCLLNNFYPREAKVQWKVDNALQSGNSQESVTEQDSKDSTYSLSSTLTLSKADYEKHKVYACEVTHQGLSSPVTKSFNRGEC
# B3: Engineered humanised 6.2 (Variant A) (antibody, V domains shown)
# VH: EVQLVESGGGLVKPGGSLRLSCAASGFTLSSYGMSWVRQAPGKGLEWVASIRSEGQTYYPDSVKGRFTISRDNAKNTLYLQMSSLRAEDTAVYYCTRGGYYGSSPYYWGQGTTVTVSS
# VL: DIVMTQSPLSLPVTPGEPASISCKSSQSLLYSSNQKNYLAWYQQKPGQSPKLLIYWASTRESGVPDRFSGSGSGTDFTLKISRVEAEDVGVYYCQQYYNYLTFGGGTKVEIKR
# B4: 24H7 (antibody, IgG1, V domains shown)
# VH: QVQLQQSGAELVRPGASVTLSCKASGYTFTDYEIHWVKQTLVHGLEWIGPIDPDTGNTAYNQNLKGKAILTADKSSSTAYMELRSLTSEDSAVYYCTRGGYDSDWGFAYWGQGTLVTVSA
# VL: DIVMTQATPSVPVTPGESVSISCRSSKSLLHSNGNTFLFWFLQRPGQSPQLLIYRMSDLASGVPDRFSGSGSGTAFTLRISRVEAEDVGIYYCMQHLEYPFTFGSGTKLEIK
# notes: mIgG1
# Key:
# human FcγR2B = target: T1, human FcγR2B; experiment: SPR 37C, steady state;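 further: fc variants captured on chip-bound human BTLA ectodomain, recombinant FcγR ectodomains injected as analyte at varied concentrations, double-referenced equilibrium binding fitted to Langmuir model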
# human FcγR2A 131H = target: T2, human FcγR2A 131H; experiment: SPR 37C, steady state;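 further: fc variants captured on chip-bound human BTLA ectodomain, recombinant FcγR ectodomains injected as analyte at varied concentrations, double-referenced equilibrium binding fitted to Langmuir model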
# human FcRn = target: T5, human FcRn (human, UniProt P55899 24-297; P61769 21-119, limits assumed, biotinylated); experiment: SPR, pH6.0
# T5 construct: bought; also called FcRn pH6
# T5 sequence (P55899 24-297 limits assumed, chain 1 of 2): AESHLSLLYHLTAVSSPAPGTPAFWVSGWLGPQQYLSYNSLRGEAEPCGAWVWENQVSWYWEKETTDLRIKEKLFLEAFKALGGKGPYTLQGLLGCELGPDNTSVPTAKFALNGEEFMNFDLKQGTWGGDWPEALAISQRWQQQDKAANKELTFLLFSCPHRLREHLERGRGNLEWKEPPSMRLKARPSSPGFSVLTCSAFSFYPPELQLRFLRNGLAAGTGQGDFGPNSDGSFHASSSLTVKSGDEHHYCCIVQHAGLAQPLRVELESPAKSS
# T5 sequence (P61769 21-119 limits assumed, chain 2 of 2): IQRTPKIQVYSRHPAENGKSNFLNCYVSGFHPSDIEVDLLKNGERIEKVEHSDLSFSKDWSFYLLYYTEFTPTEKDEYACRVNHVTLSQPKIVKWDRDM
# Description: For the high affinity FcR interactions (FcγR1A, and also FcRn assessed at pH6.0) the binding was assessed in a kinetic analysis with antibody as analyte. […] Reference flow cell 1 was left empty in all channels. Purified antibody was then injected at a single concentration and on/off rates calculated by curve fitting on BiaEvaluation software. […] IgG Fc has two binding sites for FcRn so this assessment performed with FcRn immobilised at high density provides an avidity estimate for the interaction rather than a true KD.
# human FcγR3A 158V = target: T6, human FcγR3A 158V (human, UniProt P08637 17-208); experiment: SPR 37C, steady state;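 further: fc variants captured on chip-bound human BTLA ectodomain, recombinant FcγR ectodomains injected as analyte at varied concentrations, double-referenced equilibrium binding fitted to Langmuir model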
# T6 construct: extracellular domain
# T6 sequence (P08637 17-208 F176V): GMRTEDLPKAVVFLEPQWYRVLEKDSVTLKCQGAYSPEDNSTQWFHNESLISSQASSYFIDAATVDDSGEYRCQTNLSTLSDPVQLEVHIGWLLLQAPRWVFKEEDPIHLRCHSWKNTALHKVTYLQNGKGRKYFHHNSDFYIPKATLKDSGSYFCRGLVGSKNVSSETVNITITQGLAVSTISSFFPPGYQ
# human FcγR2A 131R = target: T3, human FcγR2A 131R; experiment: SPR 37C, steady state;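 further: fc variants captured on chip-bound human BTLA ectodomain, recombinant FcγR ectodomains injected as analyte at varied concentrations, double-referenced equilibrium binding fitted to Langmuir model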
# [1] = target: T7, monomeric soluble human BTLA extracellular domain (BTLA K31-R151) (human, UniProt Q7Z6A9 31-151); experiment: SPR Biacore 8K 37C, single cycle kinetics;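 further: antibody captured on sensor chip, soluble BTLA extracellular domain flowed over at several concentrations in HBS-EP pH 7.4, rates fitted after subtracting isotype-control reference channel and blank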
# T7 construct: also called hBTLA; monomeric BTLA
# Description: (§1) The binding affinity and kinetics of humanised BTLA agonist antibodies to human or cynomolgus BTLA were determined by surface plasmon resonance using the Biacore 8K (GE Healthcare). […] Anti-BTLA antibody was then captured onto the biosensor surface and a negative control antibody (human IgG1k isotype control; Sino Biological cat #HG1K) captured in the reference channel. Various concentrations of monomeric soluble human BTLA extracellular domain (BTLA^K31-R151, produced recombinantly in house) or soluble cynomolgus macaque BTLA extracellular domain (BTLA^K31-R151, produced recombinantly in house) were then injected over the immobilized antibodies in the buffer HBS-EP (GE Healthcare, cat #BR100669), pH 7.4 (HBS-P) at 37° C., in a single cycle kinetics analysis.
# [2] = target: T4, soluble cynomolgus macaque BTLA …; experiment: SPR Biacore 8K 37C, single cycle kinetics;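 further: antibody captured on sensor chip, soluble BTLA extracellular domain flowed over at several concentrations in HBS-EP pH 7.4, rates fitted after subtracting isotype-control reference channel and blank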
# Description: as §1
# [3] = target: full length human BTLA expressed on cells (human, UniProt Q7Z6A9 31-289); experiment: cell-based or functional assay
# [4] = target: chimeric BTLA of humanised-BTLA mice (human extracellular region, murine transmembrane and signaling … (human; mouse, UniProt Q7TSA3 184-306, limits assumed); experiment: cell-based or functional assay
# Sequence of chimeric BTLA of humanised-BTLA mice (human extracellular region, murine transmembrane and signaling … (Q7TSA3 other isoform, or with tags, fused parts or gaps mutant limits assumed): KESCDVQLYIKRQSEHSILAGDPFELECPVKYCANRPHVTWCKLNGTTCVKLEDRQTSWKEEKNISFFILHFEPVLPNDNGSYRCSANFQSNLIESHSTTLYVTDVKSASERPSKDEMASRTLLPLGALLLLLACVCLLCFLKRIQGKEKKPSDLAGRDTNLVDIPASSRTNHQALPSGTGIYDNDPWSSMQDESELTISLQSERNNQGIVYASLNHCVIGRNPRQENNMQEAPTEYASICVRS
# [5] = target: T7, monomeric soluble human BTLA …; experiment: SPR 37C, mAb captured, BTLA ECD analyte;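 further: Anti-BTLA mouse antibodies captured on a sensor chip via polyclonal anti-mouse IgG, isotype control antibody in reference channel, rates fitted after reference and blank subtraction to derive Kd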
# Description: Mouse antibody capture kit (GE Healthcare) was used to coat a Series S CMS Sensor Chip (GE Healthcare) with polyclonal anti-mouse IgG. Anti-BTLA antibody was then captured onto the biosensor surface and a negative control antibody (clone Mopc21; Biolegend) captured in the reference channel. […] Association and dissociation rates were fitted using BiaEvaluation Software (GE Healthcare) after reference and blank subtractions, and dissociation constants were calculated (FIG. 1b).
# Wherever AntiCD3/CD28 (CD4 T cell proliferation) repeat 1 is given: test concentration or dose not given here.
# Wherever AntiCD3/CD28 (CD4 T cell proliferation) repeat 2 is given: test concentration or dose not given here.
# Wherever AntiCD3/CD28 (CD69+ CD4 T cells) repeat 1 is given: test concentration or dose not given here.
# Wherever AntiCD3/CD28 (CD69+ CD4 T cells) repeat 2 is given: test concentration or dose not given here.
# Wherever MLR (CD4 T cell proliferation) repeat 1 is given: test concentration or dose not given here.
# Wherever MLR (CD4 T cell proliferation) repeat 2 is given: test concentration or dose not given here.
# Wherever T cell reporter (NFκB signaling) is given: test concentration or dose not given here.
binder,measurement,setting,value
B1,Kd,human FcγR2B,876 µM
same,Kd,human FcγR2A 131H,771 µM
B2,avidity (FcRn pH6),human FcRn,14.2 nM
same,Kd,human FcγR2B,1170 µM
same,Kd,human FcγR3A 158V,1410 µM
same,Kd,human FcγR2A 131R,399 µM
B3,Kd,[1],0.0109 µM
same,koff,[1],0.00756 s⁻¹
same,kon,[1],694000 M⁻¹ s⁻¹
same,Kd,[2],0.695 µM
same,koff,[2],0.0507 s⁻¹
same,kon,[2],72900 M⁻¹ s⁻¹
B4,T cell reporter (NFκB signaling),[3],22 % inhibition
same,AntiCD3/CD28 (CD4 T cell proliferation) repeat 1,[4],13 % inhibition
same,AntiCD3/CD28 (CD4 T cell proliferation) repeat 2,[4],23 % inhibition
same,AntiCD3/CD28 (CD69+ CD4 T cells) repeat 1,[4],52 % inhibition
same,AntiCD3/CD28 (CD69+ CD4 T cells) repeat 2,[4],44 % inhibition
same,MLR (CD4 T cell proliferation) repeat 1,[4],23 % inhibition
same,MLR (CD4 T cell proliferation) repeat 2,[4],31 % inhibition
same,Kd,[5],0.00066 µM
same,koff,[5],0.00016 s⁻¹
same,kon,[5],243000 M⁻¹ s⁻¹

# Source: patent US20230235058A1 (OXFORD UNIVERSITY INNOVATION, published 2023)
